Experimental data published in patent US20180044434A1 (PUBLIC UNIVERSITY CORPORATION YOKOHAMA CITY UNIVERSITY, published 2018).
Residue numbers refer to the chain shown, from its start.

B1: humanized anti-PAD4 antibody derived from G8, VH H4.15 / VL L4.00 (antibody, human IgG1, kappa, V domains shown)
VH: EVQLLESGGGLVQPGGSLRLSCAASGFTFSTYAMGWVRQAPGKGLEFVSAIRNDGSWTGYGAAVKGRFTISRDNSKNTVYLQMNSLRAEDTAVYYCAKYTGSSGGSIGAWGQGTLVTVSS
VL: SYELTQPPSVSVSPGQTARITCSGGNRNYYYGWYQQKPGQAPVLVIYANDKRPSGIPERFSGSSSGTTVTLTISGVQAEDEADYYCGTADTGKYVFGGGTKLTVLG
notes: IgG1 kappa; also called G8 H4.15/L4.00
B2: humanized anti-PAD4 antibody derived from G8, VH H4.15 / VL L4.17 (antibody, human IgG1, kappa, V domains shown)
VH: B1 VH
VL: B1 VL with L44T, S64T, T67N, V69T
notes: IgG1 kappa; also called G8 H4.15/L4.17
B3: humanized anti-PAD4 antibody derived from G8, VH H4.15 / VL L4.06 (antibody, human IgG1, kappa, V domains shown)
VH: B1 VH
VL: B1 VL with L44T, S64Y, T67N, V69T
notes: IgG1 kappa; also called G8 H4.15/L4.06
B4: humanized anti-PAD4 antibody derived from H7, VH H4.00 / VL L4.15 (antibody, IgG1, V domains shown)
VH: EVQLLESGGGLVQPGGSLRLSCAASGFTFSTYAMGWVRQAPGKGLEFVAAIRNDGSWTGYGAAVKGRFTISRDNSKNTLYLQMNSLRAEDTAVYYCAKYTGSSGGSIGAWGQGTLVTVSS
VL: SYELTQPPSVSVSPGQTARITCSGGSGRYYYGWYQQKPGQAPVTVIYSSTHRPSGIPERFSGSNSGNTTTLTISGVQAEDEADYYCGTADSSSYVFGGGTKLTVLG
notes: IgG1 kappa; also called H7 H4.00/L4.15
B5: humanized anti-PAD4 antibody derived from H7, VH H4.32 / VL L4.15 (antibody, IgG1, V domains shown)
VH: B1 VH with S49A, F68V
VL: B4 VL
notes: IgG1 kappa; also called H7 H4.32/L4.15
B6: humanized anti-PAD4 antibody derived from H7, VH H4.00 / VL L4.00 (antibody, IgG1, V domains shown)
VH: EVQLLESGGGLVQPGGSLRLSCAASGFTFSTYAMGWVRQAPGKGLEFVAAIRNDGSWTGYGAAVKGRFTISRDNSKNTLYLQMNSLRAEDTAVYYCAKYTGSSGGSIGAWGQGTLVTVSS
VL: B4 VL with T44L, N64S, N67T, T69V
notes: IgG1 kappa; also called H7 H4.00/L4.00
B7: humanized anti-PAD4 antibody derived from G8, VH H4.00 / VL L4.17 (antibody, human IgG1, kappa, V domains shown)
VH: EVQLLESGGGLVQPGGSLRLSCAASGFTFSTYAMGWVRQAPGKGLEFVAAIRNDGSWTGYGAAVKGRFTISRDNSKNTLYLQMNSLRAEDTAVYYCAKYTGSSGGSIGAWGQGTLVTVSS
VL: B1 VL with L44T, S64T, T67N, V69T
notes: IgG1 kappa; also called G8 H4.00/L4.17
B8: humanized anti-PAD4 antibody derived from H7, VH H4.00 / VL L4.17 (antibody, IgG1, V domains shown)
VH: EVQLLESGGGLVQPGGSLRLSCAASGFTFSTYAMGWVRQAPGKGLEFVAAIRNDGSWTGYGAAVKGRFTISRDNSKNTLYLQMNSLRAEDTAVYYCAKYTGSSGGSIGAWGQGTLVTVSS
VL: B4 VL with N64T
notes: IgG1 kappa; also called H7 H4.00/L4.17
B9: humanized anti-PAD4 antibody derived from H7, VH H4.15 / VL L4.00 (antibody, IgG1, V domains shown)
VH: B1 VH
VL: B4 VL with T44L, N64S, N67T, T69V
notes: IgG1 kappa; also called H7 H4.15/L4.00
B10: humanized anti-PAD4 antibody derived from G8, VH H4.00 / VL L4.06 (antibody, human IgG1, kappa, V domains shown)
VH: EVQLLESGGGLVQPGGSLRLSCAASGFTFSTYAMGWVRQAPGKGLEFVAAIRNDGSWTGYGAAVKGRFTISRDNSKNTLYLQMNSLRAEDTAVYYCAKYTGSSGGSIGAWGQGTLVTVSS
VL: B1 VL with L44T, S64Y, T67N, V69T
notes: IgG1 kappa; also called G8 H4.00/L4.06
B11: humanized anti-PAD4 antibody derived from H7, VH H4.00 / VL L4.06 (antibody, IgG1, V domains shown)
VH: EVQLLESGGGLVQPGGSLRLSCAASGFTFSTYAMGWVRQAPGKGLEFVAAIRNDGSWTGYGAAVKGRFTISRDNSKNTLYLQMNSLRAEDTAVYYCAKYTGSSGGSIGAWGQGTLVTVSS
VL: B4 VL with N64Y
notes: IgG1 kappa; also called H7 H4.00/L4.06
B12: humanized anti-PAD4 antibody derived from H7, VH H4.32 / VL L4.17 (antibody, IgG1, V domains shown)
VH: B1 VH with S49A, F68V
VL: B4 VL with N64T
notes: IgG1 kappa; also called H7 H4.32/L4.17
B13: humanized anti-PAD4 antibody derived from H7, VH H4.15 / VL L4.17 (antibody, IgG1, V domains shown)
VH: B1 VH
VL: B4 VL with N64T
notes: IgG1 kappa; also called H7 H4.15/L4.17
B14: humanized anti-PAD4 antibody derived from H7, VH H4.15 / VL L4.06 (antibody, IgG1, V domains shown)
VH: B1 VH
VL: B4 VL with N64Y
notes: IgG1 kappa; also called H7 H4.15/L4.06
B15: humanized anti-PAD4 antibody derived from H7, VH H4.32 / VL L4.00 (antibody, IgG1, V domains shown)
VH: B1 VH with S49A, F68V
VL: B4 VL with T44L, N64S, N67T, T69V
notes: IgG1 kappa; also called H7 H4.32/L4.00
B16: humanized anti-PAD4 antibody derived from H7, VH H4.32 / VL L4.06 (antibody, IgG1, V domains shown)
VH: B1 VH with S49A, F68V
VL: B4 VL with N64Y
notes: IgG1 kappa; also called H7 H4.32/L4.06
B17: humanized anti-PAD4 antibody derived from H7, VH H4.15 / VL L4.15 (antibody, IgG1, V domains shown)
VH: B1 VH
VL: B4 VL
notes: IgG1 kappa; also called H7 H4.15/L4.15

Each binder was assayed against T1, full-length recombinant human PAD4 (human, UniProt Q9UM07 1-663) (assay: ELISA, immobilized human PAD4).
T1 construct: Full-length recombinant; also called peptidylarginine deiminase 4
T1 sequence (Q9UM07 whole entry): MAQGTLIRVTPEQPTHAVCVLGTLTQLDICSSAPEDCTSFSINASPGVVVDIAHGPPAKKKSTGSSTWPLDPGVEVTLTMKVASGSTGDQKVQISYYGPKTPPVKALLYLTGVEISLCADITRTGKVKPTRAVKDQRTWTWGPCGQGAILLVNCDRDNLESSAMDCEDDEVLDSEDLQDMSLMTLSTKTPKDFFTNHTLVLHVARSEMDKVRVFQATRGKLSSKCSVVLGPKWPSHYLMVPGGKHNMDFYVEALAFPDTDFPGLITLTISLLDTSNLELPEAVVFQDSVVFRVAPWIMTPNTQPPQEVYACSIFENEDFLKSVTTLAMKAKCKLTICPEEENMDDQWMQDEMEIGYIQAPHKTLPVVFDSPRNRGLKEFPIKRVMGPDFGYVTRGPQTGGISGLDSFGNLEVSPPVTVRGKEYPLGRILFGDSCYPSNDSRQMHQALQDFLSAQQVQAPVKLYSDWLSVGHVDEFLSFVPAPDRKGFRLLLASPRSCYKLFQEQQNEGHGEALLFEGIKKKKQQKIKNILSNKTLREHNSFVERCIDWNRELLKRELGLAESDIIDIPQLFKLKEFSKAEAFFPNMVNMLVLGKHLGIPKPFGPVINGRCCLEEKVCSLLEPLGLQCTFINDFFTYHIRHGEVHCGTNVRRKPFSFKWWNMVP

Row | Binder | O.D. 490/630 at 0.0078125 µg/mL | O.D. 490/630 at 0.015625 µg/mL | O.D. 490/630 at 0.03125 µg/mL | O.D. 490/630 at 0.0625 µg/mL | O.D. 490/630 at 0.125 µg/mL | O.D. 490/630 at 0.25 µg/mL | O.D. 490/630 at 0.5 µg/mL | O.D. 490/630 at 1 µg/mL
1 | B1 | 0.707 | 1.11 | 1.52 | 1.84 | 1.87 | 1.87 | 1.86 | 1.85
2 | B2 | 1.24 | 1.66 | 1.86 | 1.93 | 1.87 | 1.81 | 1.82 | 1.83
3 | B3 | 1.31 | 1.68 | 1.9 | 1.92 | 1.91 | 1.87 | 1.79 | 1.77
4 | B4 | 1.31 | 1.71 | 1.89 | 1.92 | 1.87 | 1.89 | 1.87 | 1.86
5 | B5 | 1.34 | 1.77 | 1.89 | 1.94 | 1.87 | 1.84 | 1.78 | 1.79
6 | B6 | 0.441 | 0.752 | 1.21 | 1.72 | 1.88 | 1.89 | 1.91 | 1.92
7 | B7 | 1.31 | 1.62 | 1.84 | 1.89 | 1.82 | 1.81 | 1.8 | 1.8
8 | B8 | 1.3 | 1.71 | 1.85 | 1.91 | 1.87 | 1.86 | 1.85 | 1.86
9 | B9 | 0.429 | 0.764 | 1.23 | 1.71 | 1.84 | 1.9 | 1.88 | 1.86
10 | B10 | 1.22 | 1.64 | 1.83 | 1.95 | 1.85 | 1.81 | 1.83 | 1.8
11 | B11 | 1.26 | 1.75 | 1.9 | 2 | 1.87 | 1.89 | 1.86 | 1.86
12 | B12 | 1.28 | 1.77 | 1.95 | 1.98 | 1.86 | 1.86 | 1.81 | 1.79
13 | B13 | 1.31 | 1.63 | 1.81 | 1.9 | 1.81 | 1.81 | 1.82 | 1.77
14 | B14 | 1.22 | 1.68 | 1.82 | 1.83 | 1.84 | 1.82 | 1.82 | 1.84
15 | B15 | 0.389 | 0.713 | 1.17 | 1.65 | 1.77 | 1.85 | 1.81 | 1.82
16 | B16 | 1.22 | 1.64 | 1.9 | 1.94 | 1.82 | 1.86 | 1.81 | 1.77
17 | B17 | 1.25 | 1.65 | 1.82 | 1.87 | 1.83 | 1.84 | 1.83 | 1.82
